In paper PMC5806685:

Biological target: EYFP-RyR1 (full-length rabbit type 1 ryanodine receptor), expressed in RyR1/RyR3 double-null (R1R3) myotubes (rabbit) (UniProt P11716)
Assay: FRET or BRET

Sequence of EYFP-RyR1 (full-length rabbit type 1 ryanodine receptor), expressed in RyR1/RyR3 double-null (R1R3) myotubes, P11716 1-5037 (natural protein) (P11716 whole entry): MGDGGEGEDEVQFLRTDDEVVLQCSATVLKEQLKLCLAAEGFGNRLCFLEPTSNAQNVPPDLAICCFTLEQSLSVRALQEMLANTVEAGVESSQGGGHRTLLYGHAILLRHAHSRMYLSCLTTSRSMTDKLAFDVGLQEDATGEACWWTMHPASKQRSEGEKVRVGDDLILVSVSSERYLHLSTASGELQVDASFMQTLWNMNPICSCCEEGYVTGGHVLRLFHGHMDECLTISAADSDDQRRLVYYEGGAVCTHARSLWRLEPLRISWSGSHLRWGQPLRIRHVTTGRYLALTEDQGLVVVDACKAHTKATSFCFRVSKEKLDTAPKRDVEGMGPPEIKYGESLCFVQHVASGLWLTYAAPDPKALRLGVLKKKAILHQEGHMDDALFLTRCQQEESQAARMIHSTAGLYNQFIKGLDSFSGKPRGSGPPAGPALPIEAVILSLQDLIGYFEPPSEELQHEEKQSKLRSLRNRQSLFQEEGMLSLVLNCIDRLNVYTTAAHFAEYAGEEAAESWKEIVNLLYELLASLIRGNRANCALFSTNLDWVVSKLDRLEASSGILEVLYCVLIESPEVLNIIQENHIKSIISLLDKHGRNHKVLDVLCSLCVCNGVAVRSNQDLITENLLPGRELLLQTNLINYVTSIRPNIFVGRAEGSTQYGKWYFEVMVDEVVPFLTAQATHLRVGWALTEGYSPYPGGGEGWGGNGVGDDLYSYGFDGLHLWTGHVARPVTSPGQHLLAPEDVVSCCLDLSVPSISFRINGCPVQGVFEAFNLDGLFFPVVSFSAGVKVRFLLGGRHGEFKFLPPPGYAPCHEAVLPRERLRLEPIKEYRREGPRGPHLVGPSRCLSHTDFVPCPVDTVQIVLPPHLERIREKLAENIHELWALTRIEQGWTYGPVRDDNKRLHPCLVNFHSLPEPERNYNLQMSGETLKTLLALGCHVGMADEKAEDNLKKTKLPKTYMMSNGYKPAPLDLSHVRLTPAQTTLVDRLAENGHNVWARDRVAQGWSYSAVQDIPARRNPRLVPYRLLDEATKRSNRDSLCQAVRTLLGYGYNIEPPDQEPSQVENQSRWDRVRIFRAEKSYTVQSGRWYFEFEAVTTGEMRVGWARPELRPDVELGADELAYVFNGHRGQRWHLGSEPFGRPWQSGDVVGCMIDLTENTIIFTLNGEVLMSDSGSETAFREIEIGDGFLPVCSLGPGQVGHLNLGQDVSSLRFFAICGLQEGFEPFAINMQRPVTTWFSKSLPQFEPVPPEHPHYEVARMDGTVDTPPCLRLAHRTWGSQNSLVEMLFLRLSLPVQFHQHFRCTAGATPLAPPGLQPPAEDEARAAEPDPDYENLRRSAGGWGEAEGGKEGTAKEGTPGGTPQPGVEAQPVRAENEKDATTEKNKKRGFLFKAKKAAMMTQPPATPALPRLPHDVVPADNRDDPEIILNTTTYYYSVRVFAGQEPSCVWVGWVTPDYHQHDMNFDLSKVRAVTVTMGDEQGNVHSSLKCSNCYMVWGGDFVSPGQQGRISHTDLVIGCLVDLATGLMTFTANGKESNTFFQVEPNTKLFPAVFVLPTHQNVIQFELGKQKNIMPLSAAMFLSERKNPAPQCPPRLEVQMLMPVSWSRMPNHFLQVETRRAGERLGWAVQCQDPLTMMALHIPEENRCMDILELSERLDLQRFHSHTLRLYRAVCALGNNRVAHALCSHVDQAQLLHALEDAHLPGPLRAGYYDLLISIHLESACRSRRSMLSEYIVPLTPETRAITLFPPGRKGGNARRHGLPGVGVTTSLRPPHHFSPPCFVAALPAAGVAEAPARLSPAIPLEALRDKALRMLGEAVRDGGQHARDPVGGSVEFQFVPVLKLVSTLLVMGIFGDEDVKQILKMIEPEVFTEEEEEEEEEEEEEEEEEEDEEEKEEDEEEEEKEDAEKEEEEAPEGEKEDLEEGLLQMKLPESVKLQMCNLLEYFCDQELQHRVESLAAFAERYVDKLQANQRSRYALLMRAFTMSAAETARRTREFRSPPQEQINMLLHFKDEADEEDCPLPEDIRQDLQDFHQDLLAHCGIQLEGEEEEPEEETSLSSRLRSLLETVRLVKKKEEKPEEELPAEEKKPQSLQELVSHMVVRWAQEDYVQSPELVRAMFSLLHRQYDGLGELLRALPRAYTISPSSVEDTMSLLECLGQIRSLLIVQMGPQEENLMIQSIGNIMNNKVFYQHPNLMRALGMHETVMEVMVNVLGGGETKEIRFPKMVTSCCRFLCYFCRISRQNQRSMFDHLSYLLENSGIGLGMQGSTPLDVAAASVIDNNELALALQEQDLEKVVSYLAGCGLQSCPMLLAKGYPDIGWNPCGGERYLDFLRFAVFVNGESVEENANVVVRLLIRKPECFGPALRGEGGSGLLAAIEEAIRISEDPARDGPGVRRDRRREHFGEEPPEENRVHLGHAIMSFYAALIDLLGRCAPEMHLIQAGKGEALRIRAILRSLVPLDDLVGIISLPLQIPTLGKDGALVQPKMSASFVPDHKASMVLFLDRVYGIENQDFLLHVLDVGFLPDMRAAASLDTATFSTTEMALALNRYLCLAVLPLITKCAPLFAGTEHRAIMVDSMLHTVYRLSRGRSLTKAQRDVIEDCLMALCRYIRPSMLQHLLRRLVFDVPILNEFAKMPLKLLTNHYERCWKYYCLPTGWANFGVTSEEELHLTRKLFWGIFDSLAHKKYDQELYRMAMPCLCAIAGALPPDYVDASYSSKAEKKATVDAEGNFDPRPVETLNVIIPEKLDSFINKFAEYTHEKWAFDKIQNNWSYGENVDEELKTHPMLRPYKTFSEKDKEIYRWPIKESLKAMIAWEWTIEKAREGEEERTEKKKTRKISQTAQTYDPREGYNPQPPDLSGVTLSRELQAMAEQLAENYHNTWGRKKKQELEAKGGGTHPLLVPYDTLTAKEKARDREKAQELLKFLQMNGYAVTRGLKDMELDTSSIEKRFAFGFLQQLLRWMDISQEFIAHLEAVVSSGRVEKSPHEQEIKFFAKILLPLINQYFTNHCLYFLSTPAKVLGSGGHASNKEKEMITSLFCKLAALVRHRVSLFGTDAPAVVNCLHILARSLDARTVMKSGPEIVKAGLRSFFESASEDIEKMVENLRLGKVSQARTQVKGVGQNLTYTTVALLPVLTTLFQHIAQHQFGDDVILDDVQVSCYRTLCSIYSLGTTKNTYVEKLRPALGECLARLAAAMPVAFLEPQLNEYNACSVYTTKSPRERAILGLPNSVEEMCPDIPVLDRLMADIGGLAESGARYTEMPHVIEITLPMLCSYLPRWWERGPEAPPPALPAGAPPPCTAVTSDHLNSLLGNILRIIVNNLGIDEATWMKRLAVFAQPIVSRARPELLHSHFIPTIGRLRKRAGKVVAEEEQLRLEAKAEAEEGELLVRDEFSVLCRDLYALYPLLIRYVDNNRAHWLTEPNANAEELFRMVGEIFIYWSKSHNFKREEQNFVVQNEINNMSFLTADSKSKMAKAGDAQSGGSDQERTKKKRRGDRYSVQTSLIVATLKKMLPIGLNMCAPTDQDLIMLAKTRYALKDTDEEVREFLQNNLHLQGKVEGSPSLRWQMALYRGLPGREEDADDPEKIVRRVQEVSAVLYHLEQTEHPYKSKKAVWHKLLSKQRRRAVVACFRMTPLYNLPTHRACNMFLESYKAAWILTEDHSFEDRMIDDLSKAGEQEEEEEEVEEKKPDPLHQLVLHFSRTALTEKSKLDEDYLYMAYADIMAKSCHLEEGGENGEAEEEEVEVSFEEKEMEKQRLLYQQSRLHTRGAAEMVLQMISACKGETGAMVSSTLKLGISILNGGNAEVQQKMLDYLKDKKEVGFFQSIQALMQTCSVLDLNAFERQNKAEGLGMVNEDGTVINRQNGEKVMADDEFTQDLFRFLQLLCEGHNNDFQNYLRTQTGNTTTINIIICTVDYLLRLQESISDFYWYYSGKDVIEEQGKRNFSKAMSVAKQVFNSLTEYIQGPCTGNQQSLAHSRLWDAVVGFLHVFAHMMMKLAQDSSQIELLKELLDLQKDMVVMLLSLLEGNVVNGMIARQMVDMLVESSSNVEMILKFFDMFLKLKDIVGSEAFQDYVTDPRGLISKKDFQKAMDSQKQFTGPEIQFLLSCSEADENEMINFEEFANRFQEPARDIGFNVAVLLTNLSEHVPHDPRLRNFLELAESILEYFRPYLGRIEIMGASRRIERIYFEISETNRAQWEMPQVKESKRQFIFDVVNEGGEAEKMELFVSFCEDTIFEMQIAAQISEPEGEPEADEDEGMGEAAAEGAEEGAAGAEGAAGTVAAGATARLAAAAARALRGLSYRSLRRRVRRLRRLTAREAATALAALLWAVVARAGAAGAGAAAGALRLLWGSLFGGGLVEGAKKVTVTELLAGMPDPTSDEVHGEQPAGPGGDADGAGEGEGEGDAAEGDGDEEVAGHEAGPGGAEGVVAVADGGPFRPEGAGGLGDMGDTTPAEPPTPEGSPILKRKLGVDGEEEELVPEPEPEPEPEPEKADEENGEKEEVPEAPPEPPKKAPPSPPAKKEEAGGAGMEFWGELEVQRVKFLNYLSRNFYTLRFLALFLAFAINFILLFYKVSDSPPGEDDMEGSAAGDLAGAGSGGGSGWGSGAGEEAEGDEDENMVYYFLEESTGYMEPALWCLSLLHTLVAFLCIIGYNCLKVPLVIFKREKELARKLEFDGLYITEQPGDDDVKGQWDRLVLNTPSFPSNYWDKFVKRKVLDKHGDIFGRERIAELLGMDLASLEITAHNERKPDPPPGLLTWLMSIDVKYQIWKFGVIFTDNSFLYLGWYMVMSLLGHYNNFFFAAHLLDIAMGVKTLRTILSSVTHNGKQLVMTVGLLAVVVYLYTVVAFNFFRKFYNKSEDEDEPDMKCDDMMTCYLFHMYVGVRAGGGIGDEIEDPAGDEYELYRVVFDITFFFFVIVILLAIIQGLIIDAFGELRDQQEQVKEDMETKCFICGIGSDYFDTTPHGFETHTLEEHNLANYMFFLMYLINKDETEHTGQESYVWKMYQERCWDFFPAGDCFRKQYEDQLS

Substance: EYFP-RyR1 (full-length rabbit type 1 ryanodine receptor), expressed in RyR1/RyR3 double-null (R1R3) myotubes, P11716 1-5037 (natural protein)
- FRET efficiency: 8.6%
